Data from patent US12428485B2, “Compositions and methods to block and bind CCR2 to modulate cellular function” (The Research Foundation for The State University of New York, priority 2019, dated 2025).

Legend:
[1] = test system: triple-negative breast cancer (TNBC) tumors; test: Flow cytometry of immune cells in harvested TNBC tumors; assay type: in vivo, BALB/c mice
Source text: At study completion, the tumors were harvested, digested, and single cell suspensions stained for immune cells. Dual-epitope blocking of CCR2 reduced TAMs, MDSCs, and M2-Macrophages and increased M1-Macrophages in triple-negative breast cancer (TNBCs).
We observed that dual-epitope scFv combination treatment outperforms small molecule CCR2 antagonist (SMA) and decreased tumor-associated macrophages (TAMs), myeloid-derived suppressor cells (MDSCs), and M2-macrophages and increased M1-macrophages. Single cell suspension from the harvested tumors were analyzed by flow cytometry. The cells were stained for (A) CD68+ TAMs, (B) MDSCs, (C) MHC class II macrophages (M1), and (D) CD206+ macrophages (M2).
Treatment groups included: PBS, CCR2 small molecule antagonist (SMA), PEG(20K)-ECL2-scFv, PEG(20K)-NTD-scFv, and NTD & ECL2 combination (co-dosing of PEG(20K)-ECL2-scFv and PEG(20K)-NTD-scFv), with *p<0.05, **p<0.01, and ***p<0.001 by one-way ANOVA followed by Tukey's post-test.

[2] = test system: TNBCs in the mammary fat pads; test: TNBC tumor growth, dual epitope blocking; assay type: in vivo, female BALB/c mice; settings: scFvs 1 mg/kg, SMA 2 mg/kg, tail vein, days 7, 9, 12, 14, 16, 18
Protocol: Further, we evaluated the effect of dual epitope blocking of CCCR2 on tumor growth. TNBCs were injected into the mammary fat pads of female BALB/c mice. Treatment of tumored mice started on days 7, 9, 12, 14, 16, and 18. To enhance the circulation half-life of the NTD-scFv and ECL2-scFv, we used site-directed mutagenesis to introduce a cysteine at the C-terminus of the scFvs for covalent attachment of a PEG-maleimide with molecular weight of 20 kDa. Animals (n=10 per group) were systemically (via tail vein injection) treated with (1) PBS, (2) CCR2-small molecule antagonist (SMA), (3) PEG(20K)-NTD-scFv, (4) PEG(20K)-ECL2-scFv, and (5) a NTD and ECL2 combo (co-dosing of PEG(20K)-NTD-scFv and PEG(20K)-ECL2-scFv).

4T1 breast cancer cells = test: Cell binding by flow cytometry, 4T1; settings: MFI
Source text: FIG. 16. ECL2-scFv binding to the ECL2 domain of the CCR2 chemokine receptor.

[3] = test system: RAW 264.7 macrophage cells; test: Cell binding analysis by flow cytometry, RAW 264.7; set-up: species or system mouse; settings: fluorescently labeled scFv
Protocol: FIG. 13. Binding of monomeric 58C-scFv (circles), low valency 58C-scFv attached to liposomes (triangles), and high valency 58C-scFv attached to liposomes (squares) to RAW 264.7 macrophage cells as determined by flow cytometry. […] The liposomes were incubated with DyLight 650 NHS Ester labeled 58C-scFv at 4° C. overnight. Cells were detached with 5 mM EDTA and re-suspended in PBS to a concentration of 50,000 cells per 300 μL. The cells were incubated with various dilutions of DyLight 650 NHS Ester labeled 58C-scFv (free, low degree of valency, or high degree of valency) for 1 h at 4° C. Cells were washed three times with 5% BSA and analyzed in the APC channel of a MACSQuant Analyzer 10 flow cytometer (Miltenyi Biotec, Bergisch Gladbach, Germany).
Cells were detached with 5 mM EDTA and re-suspended in PBS to a concentration of 50,000 cells per 300 μL. Cells were plated in a 48-well plate and incubated for 30 min at 4° C. After removing the PBS solution, the cells were incubated with various dilutions of DyLight 650 NHS Ester labeled 58C-scFv for 1 h at 4° C. Cells were washed three times with 5% BSA, detached with EDTA, and analyzed in the APC channel of a MACSQuant Analyzer 10 flow cytometer (Miltenyi Biotec, Bergisch Gladbach, Germany).

human CCR2 = target: T1, human CCR2 (Homo sapiens, UniProt P41597); test: Cross-reactivity with human CCR2; assay type: binding
T1 construct: endogenous in cells; host or cells: MDA-MB-231 human breast cancer cells

[4] = test system: RAW 264.7 mouse macrophages; test: Macrophage polarization, RT-PCR of M1/M2 marker genes, RAW 264.7; assay type: cell-based; settings: RAW 264.7, 24 h; LPS 100 ng/mL, IL-4 20 ng/mL, 58C-scFv 1 μM
Protocol: RAW 264.7 mouse macrophages were incubated with either LPS (100 ng/mL), IL-4 (20 ng/mL; PeproTech, Rocky Hill, NJ), or 58C-scFv (1 μM) for 24 h. For the multivalency studies, RAW 264.7 mouse macrophages were first incubated with IL-4 (20 ng/mL) for 24 h to stimulate an M2 phenotype. Following the 24 h incubation, fresh media with 58C-scFv (89 nM) was added to the cells and incubated for an additional 24 h. Total RNA was isolated with QIAzol lysis reagent (Qiagen, Germany) and total cDNA was generated using the New England Biolabs first stand synthesis kit (Ipswich, MA). RNA expression was detected by reverse transcription (RT)-PCR performed with the SYBR Green PCR kit (Qiagen). For each sample, the ΔΔCt value was calculated. Experiments were performed in triplicate. […]
To assess the effects of the anti-CCR2 scFvs on macrophage polarization, RAW 264.7 and bone marrow-derived macrophages (BMDMs) were treated with NTD-scFv and ECL2-scFv. […] To determine whether these changes were additive, synergistic, or antagonistic, the combination indices (CI) were calculated for NTD-scFv and ECL2-scFv by treating cells with a combination of NTD-scFv and ECL2-scFv. CI was calculated by: CI=(CA,X/ICX,A)+(CB,X/ICX,B), where CA,X and CB,X are the concentration of drug A (in this case NTD-scFv) and B (here, ECL2-scFv) used in combination to achieve x % drug effect. […]

T1 sequence (P41597 whole entry): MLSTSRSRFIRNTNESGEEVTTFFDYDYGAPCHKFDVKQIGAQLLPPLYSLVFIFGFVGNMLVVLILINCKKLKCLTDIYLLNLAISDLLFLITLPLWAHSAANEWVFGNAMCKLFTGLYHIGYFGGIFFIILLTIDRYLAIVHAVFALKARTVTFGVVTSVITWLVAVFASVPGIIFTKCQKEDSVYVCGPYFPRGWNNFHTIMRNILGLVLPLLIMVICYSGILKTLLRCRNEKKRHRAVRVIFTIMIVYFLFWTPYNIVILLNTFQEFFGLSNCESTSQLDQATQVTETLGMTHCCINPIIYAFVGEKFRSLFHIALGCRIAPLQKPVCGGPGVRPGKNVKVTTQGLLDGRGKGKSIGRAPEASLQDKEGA

Molecule: Cc1ccc2c(c1)C1(CCN(CCc3nc(-c4ccccc4)oc3C)CC1)OC(=O)N2 [RS 504393]
- effects on TAMs, MDSCs, M1 and M2 macrophages compared to PBS control ([1]; FIG. 24A-D, SMA 2 mg/kg): not significant
- change in Tregs, CD8+ and CD4+ T cells compared to PBS treated mice ([1]; flow cytometry): no statistically significant reduction
- reduction in tumor volume, order among treatment groups [2]: weakest effect

B1: ECL2-scFv: scFv against the 2nd extracellular loop (ECL2) of CCR2; Example 3 names scFv 4h, SEQ ID NO:6 (protein, listed as Homo sapiens)
scFv: MKKTAIAIAVALAGFATVAQADYKDDDDKLQSVLTQPPSASGTPGQRVTISCSGSSSNIGSHTVNWYQQLPGTAPKLLIYRNNQRPSGVPDRFSGSKSGTSASLAISGLRSEDEADYYCAAWDDSLSGVVFGGGTKLTVLGEGKSSGSGSESKASQVTLKESGAEVKKPGASVKVSCKASGYTFTNFYIHWVRRAPGQGLEWMGIINPSDGRTTYAQKFQGRVTMTRDTSTSTLYMELTSLRSEDTAVYYCGRGGHYSNYFGQPSTWGQGTLVTVSSVEAS
- binding to 4T1 breast cancer cells (4T1 breast cancer cells): binds
- binding to RAW 264.7 cells [3]: binds
- cross-reactivity, binding to human CCR2 (human CCR2): bind to human CCR2

B2: IL-4: interleukin, M2 promoting agent (protein, UniProt P05112 25-153, looked up)
Interleukin-4: HKCDITLQEIIKTLNSLTEQKTLCTELTVTDIFAASKNTTEKETFCRAATVLRQFYSHHEKDTRCLGATAQQFHRHKQLIRFLKRLDRNLWGLAGLNSCPVKEANQSTLENFLERLKTIMREKYSKCSS
- macrophage polarization, M1/M2 gene expression compared to the untreated control [4]: increased both Arg-1 and Mgl2 gene expression
